Data as given in article PMC4950008.

The sequences below were run against T1, His-GlnR (UniProt O53830) (assay: EMSA).
T1 sequence: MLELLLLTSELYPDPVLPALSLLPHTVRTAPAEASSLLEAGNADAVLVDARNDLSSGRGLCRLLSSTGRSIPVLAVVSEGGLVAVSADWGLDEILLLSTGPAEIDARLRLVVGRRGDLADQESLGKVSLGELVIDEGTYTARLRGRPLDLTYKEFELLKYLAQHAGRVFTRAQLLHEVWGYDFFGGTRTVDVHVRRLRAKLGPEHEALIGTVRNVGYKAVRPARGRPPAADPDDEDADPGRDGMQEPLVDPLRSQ

Row | Sequence | binding
1 | CATGAGCTGATGAATGGAGTCCACTACCGGCCGGTGCGGCGACCAAGGATCTGTTTGCGACGGGATCTGTGCGACGTTGGCGGCAATCAGCTTGTTACAGCTGATAATCCGAGCGTGATCGCGACCTAACCGGCAGGCAACGCCGGCATGGTCCCCTGGCACGATGGGACTACTGTCACGCTTGCGCAAACGTGAGCCGATCAGCATCTACGACAAGATC (double strand) [peak 17, Rv1542c (glbN) promoter region] | binds
2 | GTACGTCCACAATCGAAGGACGCGGAAGCACGGGGCCGCGACCACCGAGACCCGTGGCGGCCCATGGCCGCAAGGAGGCTCCTCGCGAGATTCGTCACGCGTTACCTGGATTTAACCTGCGCCCGTCCGAAGCGCCCGGCTTTTTCGTAGGCTTCGCTGCGGTTGGGGCCAGACAGCGCCGTGAAGCCCGGTGGGTGTGGCCGGCTGACGGGATGGT (double strand) [peak 18, Rv1548c (PPE22)/Rv1549 (fadD11) promoter region] | binds
3 | CACAGACTCCATCTGTTGGGGGTTCAACGGGGATTCAACCGGACACTTAGCGCCACTATTGAATATGAATATCATTTGAACGAGAGGTTAACACAGCGTGACGACGGCCCAGGGCGGTGAGTTTGGTCACACGAGCGCTGGGCTCACCACCCCATGCTGGTGGGATTTAGC (double strand) [peak 13, Rv1386 (PE15) promoter region] | binds
4 | ACTCCCTGCGGCAAGGTGTAGGCCAGCTCGCGCAACTTAACCGCGCACTCGTAGAGCGTCTGGCGGAAATGCGTTTCGGTCATCGGGGTGCCTTCGCTCGTCGGCGAGATCGGCAGCGGTGTCTTGTGCTCATACAGATCAATCTCATTCATCAGAGCCATCATTCGCCGGCTAGCAGCTGCAAATCATCAGCACATCCACGTATGTC (double strand) [Rv1360 upstream region (negative control)] | no binding
